From paper PMC2581521 (Developmental cell, 2008)

T1: Xenopus Chordin-Myc (Xenopus, UniProt Q91713 20-941)
T1 sequence (looked up): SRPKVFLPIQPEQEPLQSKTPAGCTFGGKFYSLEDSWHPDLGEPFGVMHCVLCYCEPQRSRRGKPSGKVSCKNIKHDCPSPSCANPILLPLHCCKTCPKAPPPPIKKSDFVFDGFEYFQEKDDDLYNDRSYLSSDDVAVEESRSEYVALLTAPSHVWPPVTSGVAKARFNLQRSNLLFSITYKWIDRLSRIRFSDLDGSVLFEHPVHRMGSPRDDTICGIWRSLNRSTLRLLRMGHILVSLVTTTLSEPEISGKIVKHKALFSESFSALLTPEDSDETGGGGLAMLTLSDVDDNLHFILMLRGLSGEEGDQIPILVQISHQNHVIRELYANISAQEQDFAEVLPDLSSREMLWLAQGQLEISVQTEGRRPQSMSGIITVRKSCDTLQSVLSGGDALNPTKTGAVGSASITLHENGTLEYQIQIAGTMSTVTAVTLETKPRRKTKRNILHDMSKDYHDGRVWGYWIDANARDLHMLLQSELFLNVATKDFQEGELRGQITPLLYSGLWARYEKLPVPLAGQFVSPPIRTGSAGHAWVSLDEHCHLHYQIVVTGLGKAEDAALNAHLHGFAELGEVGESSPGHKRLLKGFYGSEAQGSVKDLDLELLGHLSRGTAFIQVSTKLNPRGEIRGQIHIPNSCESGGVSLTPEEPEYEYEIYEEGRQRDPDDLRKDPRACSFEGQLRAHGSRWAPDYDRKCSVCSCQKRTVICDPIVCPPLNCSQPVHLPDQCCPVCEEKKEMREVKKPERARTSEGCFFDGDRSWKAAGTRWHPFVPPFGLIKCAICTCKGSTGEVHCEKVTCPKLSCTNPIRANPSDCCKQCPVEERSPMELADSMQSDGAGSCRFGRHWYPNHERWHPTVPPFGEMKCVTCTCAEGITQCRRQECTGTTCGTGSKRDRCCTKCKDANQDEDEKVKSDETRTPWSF

B1: Crossveinless-2 (recombinant mouse CV2) (natural protein)
chain: not shown
B2: Bone Morphogenetic Protein 4 (recombinant human BMP4) (ligand, UniProt P12644 293-408, looked up)
chain: SPKHHSQRARKKNKNCRRHSLYVDFSDVGWNDWIVAPPGYQAFYCHGDCPFPLADHLNSTNHAIVQTLVNSVNSSIPKACCVPTELSAISMLYLDEYDKVVLKNYQEMVVEGCGCR
B3: Twisted gastrulation (recombinant mouse Tsg) (natural protein, UniProt Q9EP52 25-222, looked up)
chain: CNKALCASDVSKCLIQELCQCRPGEGNCPCCKECMLCLGALWDECCDCVGMCNPRNYSDTPPTSKSTVEELHEPIPSLFRALTEGDTQLNWNIVSFPVAEELSHHENLVSFLETVNQLHHQNVSVPSNNVHAPFPSDKERMCTVVYFDDCMSIHQCKISCESMGASKYRWFHNACCECIGPECIDYGSKTVKCMNCMF

Legend:
Xenopus Chordin-Myc = biological target: T1, Xenopus Chordin-Myc; test: cross-linking
[1] = biological target: B3; test: cross-linking
[2] = biological target: B1; test: co-IP

Row | Binder | binding result (Xenopus Chordin-Myc) | binding result [1] | binding result [2]
1 | B1 | binds | – | –
2 | B2 | binds | binds | –
3 | B3 | – | – | binds
